# Measurements published in patent US20100291682, “SYSTEM FOR TRANSPOSING HYPERACTIVE RECOMBINANT DERIVATIVES OF MOS-1 TRANSPOSON” (published 2010).
# T1: Mos-1 transposase TY (Drosophila mauritiana, UniProt Q7JQ07 SEQ:1-345, T216A,Y237C)
# T1 sequence: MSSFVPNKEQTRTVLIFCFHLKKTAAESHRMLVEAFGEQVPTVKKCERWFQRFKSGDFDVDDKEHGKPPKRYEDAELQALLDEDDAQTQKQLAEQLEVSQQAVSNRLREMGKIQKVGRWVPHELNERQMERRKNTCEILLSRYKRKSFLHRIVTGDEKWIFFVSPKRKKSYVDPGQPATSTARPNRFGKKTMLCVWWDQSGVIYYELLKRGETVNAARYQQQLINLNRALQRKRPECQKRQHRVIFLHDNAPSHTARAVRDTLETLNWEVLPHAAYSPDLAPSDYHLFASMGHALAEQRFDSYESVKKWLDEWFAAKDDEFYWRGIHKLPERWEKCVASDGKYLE
# T2: Mos-1 transposase QY (Drosophila mauritiana, UniProt Q7JQ07 SEQ:1-345, Q91R,Y237C)
# T2 sequence: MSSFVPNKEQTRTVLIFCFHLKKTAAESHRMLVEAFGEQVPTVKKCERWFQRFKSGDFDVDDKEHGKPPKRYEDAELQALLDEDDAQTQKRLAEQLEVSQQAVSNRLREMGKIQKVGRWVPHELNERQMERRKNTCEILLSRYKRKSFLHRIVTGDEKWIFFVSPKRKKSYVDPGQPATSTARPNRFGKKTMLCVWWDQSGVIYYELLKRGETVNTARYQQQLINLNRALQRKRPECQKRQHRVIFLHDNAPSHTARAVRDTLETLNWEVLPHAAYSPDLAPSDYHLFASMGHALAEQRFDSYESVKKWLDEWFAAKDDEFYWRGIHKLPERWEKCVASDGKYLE
# T3: Mos-1 transposase FETY (Drosophila mauritiana, UniProt Q7JQ07 SEQ:1-345, F53Y,E137K,T216A,Y237C)
# T3 sequence: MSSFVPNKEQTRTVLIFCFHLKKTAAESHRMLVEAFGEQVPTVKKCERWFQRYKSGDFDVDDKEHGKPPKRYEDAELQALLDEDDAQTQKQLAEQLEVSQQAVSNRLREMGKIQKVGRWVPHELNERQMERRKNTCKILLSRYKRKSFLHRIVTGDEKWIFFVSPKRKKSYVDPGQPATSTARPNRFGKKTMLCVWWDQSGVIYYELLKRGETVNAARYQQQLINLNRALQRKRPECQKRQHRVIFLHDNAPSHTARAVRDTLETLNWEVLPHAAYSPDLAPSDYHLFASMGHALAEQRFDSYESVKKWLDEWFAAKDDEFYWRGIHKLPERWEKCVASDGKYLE
# T4: MBP-Mos-1 transposase (MBP-Tnp) (Drosophila mauritiana, UniProt Q7JQ07 SEQ:1-345)
# T4 sequence: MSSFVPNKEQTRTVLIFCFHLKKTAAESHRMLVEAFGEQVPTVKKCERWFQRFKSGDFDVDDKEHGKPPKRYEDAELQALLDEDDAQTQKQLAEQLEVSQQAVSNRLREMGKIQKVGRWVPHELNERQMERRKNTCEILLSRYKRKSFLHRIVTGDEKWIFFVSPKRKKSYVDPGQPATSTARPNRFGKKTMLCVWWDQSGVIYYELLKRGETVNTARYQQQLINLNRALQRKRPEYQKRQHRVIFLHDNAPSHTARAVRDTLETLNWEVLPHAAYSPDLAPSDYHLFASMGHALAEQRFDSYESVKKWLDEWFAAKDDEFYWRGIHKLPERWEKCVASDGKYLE
# Tests used:
# [1] = target: T1, Mos-1 transposase TY; assay: cell_activity; 3T46 transposition in E. coli T5 vs 3T3/WT; conditions: chain copies: 2
# Experimental: (§1) Escherichia coli JM109 bacteria were co-transformed with the pBC 3T3 plasmid (comprising a transposition reporter 2 ITR 3′ mariner-like element and the chloramphenicol resistance gene) and with the inducible vector encoding for the transposase (pKK-Tnp or pMal-Tnp) comprising the ampicillin resistance gene. The bacteria selection was performed on ampicillin (100 μg/ml) and chloramphenicol in order to verify the presence of the two plasmids.
# (§2) The JM109 bacteria containing both the pBC 3T3 plasmid and the pKK-Tnp (or pMalC2X-Tnp) plasmid were placed in culture for 1 hr at 37° C. in 250 μl of LB. This inoculum was then poured into 5 ml of LB supplemented with 1 mM IPTG. The culture was titrated on LB plates (100 μl of a 1/1000 dilution) and on LB-Tet plates (12.5 μg/ml) (250 μl of the non-diluted culture). The culture induced by IPTG was then cultured for 5 hours at 32° C. (optimal temperature of transposase) under stirring (250 rpm). The bacterial suspension was then titrated on LB plates (100 μl of a 1/250,000 dilution) and on LB-tet plates (100 μl of the undiluted bacterial suspension). The plates were placed at 37° C. overnight. The following day, the colonies were counted on LB and LB-Tet plates, and the transposition frequency (equal to the number of tetracycline bacteria over the number of bacterial per 1 ml of undiluted bacterial suspension) was calculated.
# (§3) In order to evaluate the transposition efficiency of systems associating a hyperactive transposase and a pseudo-transposon that is also hyperactive, various combinations were tested in the transposition test in bacteria described in part I, paragraph I-B above.
# [2] = target: T2, Mos-1 transposase QY; assay: as above; conditions: chain copies: 2
# Experimental: as §1, §2, §3
# [3] = target: T3, Mos-1 transposase FETY; assay: as above; conditions: chain copies: 2
# Experimental: as §1, §2, §3
# [4] = target: T4, MBP-Mos-1 transposase (MBP-Tnp); assay: EMSA; 5 mM MgCl2, 4 C; conditions: tags: N-terminal MBP (pMalC2x); chain copies: 2
# Experimental: The sequences inducing a delay in migration after incubation with Tnp (positive ITRs) were subjected to a further gel retardation with a purified DNA fragment. The ITR/protein complexes were formed in a final volume of 20 μl containing: 40 μg of MBP-Tnp protein, 1 nM of ITR probe, 1 μg of salmon sperm DNA, 2 μl of 50% glycerol, 5 mM of MgCl₂ and 0.5 μM of pRev. The ITRs only were used at a final concentration of 1 nM in a mixture containing 2 μl of 50% glycerol and 17 μl of buffer. The interaction reactions were maintained for 15 minutes at 4° C. before being analysed on polyacrylamide gel.
binder,measurement,setting,value
ITR46 (dsDNA) DNA 1: TCAGGTGTACAAGTATGAGATGTCGTTT DNA 2: AAACGACATCTCATACTTGTACACCTGA,activity,[1],61.8 fold
same,activity,[2],1.7 fold
same,activity,[3],2 fold
same,binding result,[4],binds
